Experimental data: patent publication US20200408687, “Polarization-Based Fluorescent Nucleic Acid Detection” (The General Hospital Corporation, published 2020)

Molecular target: Taq DNA polymerase (UniProt P19821 P19821:1-832)
Assay: EMSA; band of key/amplicon hybrid shifted on adding Taq; 4 mM MgCl2, 20 mM Tris-HCl pH 8.3, 20 mM KCl, room temp; text does not name the individual keys run
Conditions: tags: New England Biolabs (band shift); Maxima Hot Start Taq, Thermo Scientific, in PAD assay
Procedure: Electrophoretic Band Shift Experiment Solution containing 100 or 200 nM detection key, PCR products and 12.5 U Taq DNA polymerase (New England Biolabs) in 20 mM Tris-HCl (pH 8.3), 20 mM KCl, 5 mM (NH4)2SO4, and 4 mM MgCl2 was incubated at room temperature for 20 min. The solution was mixed with 6× loading buffer and subjected to electrophoresis on a 20% polyacrylamide gel (Life technologies). The analysis was carried out in 1× TBE (100 mM Tris, 90 mM Borate, 1 mM EDTA) at 150 V for 160 min at 4° C. After GelRed (Biotium) staining, gels were scanned using a UV transilluminator. DNA polymerase was neither fluorescent nor stained by the dye.
The sequence homology among genus types was kept <50% to minimize non-specific binding. When tested, the HAI keys assumed high specificity. […] Electrophoretic band-shift analysis confirmed that the detection keys, in the presence of complementary target amplicon, bound to DNA polymerase and inhibited its catalytic activity (see FIG. 24). […] This confirmed the binding between detection keys and DNA polymerase.

Sequence of Taq DNA polymerase (P19821 whole entry, one chain of several): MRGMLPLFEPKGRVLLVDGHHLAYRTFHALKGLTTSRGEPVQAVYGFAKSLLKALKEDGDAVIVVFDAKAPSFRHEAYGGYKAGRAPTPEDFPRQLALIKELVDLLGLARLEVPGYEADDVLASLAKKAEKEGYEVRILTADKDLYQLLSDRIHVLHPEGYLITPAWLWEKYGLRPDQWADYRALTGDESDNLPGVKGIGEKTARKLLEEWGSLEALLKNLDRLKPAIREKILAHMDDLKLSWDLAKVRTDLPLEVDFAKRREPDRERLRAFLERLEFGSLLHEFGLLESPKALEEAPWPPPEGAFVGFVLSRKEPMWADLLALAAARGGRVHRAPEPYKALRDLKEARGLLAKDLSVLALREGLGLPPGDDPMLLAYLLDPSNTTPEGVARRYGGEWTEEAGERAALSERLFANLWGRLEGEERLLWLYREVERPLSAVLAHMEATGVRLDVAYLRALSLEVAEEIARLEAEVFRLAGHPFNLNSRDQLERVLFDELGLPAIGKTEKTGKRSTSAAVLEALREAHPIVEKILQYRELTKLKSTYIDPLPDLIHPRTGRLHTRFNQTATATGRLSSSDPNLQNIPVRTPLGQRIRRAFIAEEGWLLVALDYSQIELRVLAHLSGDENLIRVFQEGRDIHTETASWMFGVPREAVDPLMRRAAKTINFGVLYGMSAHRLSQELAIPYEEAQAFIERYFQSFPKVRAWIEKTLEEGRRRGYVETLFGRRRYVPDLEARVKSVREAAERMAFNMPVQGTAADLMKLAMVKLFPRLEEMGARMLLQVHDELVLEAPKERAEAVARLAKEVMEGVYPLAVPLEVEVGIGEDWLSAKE

B1: Escherichia detection key / Escherichia amplicon (mixed)
DNA 1: CAATGTACAGTATTGTGGAGGAAGGGAGTAAAGTTAAT
DNA 2: TGCGGGTAACGTCAATGAGCAAAGGTATTAACTTTACTCCCTTCCTCCA
modifications: amplicon strand dU in place of dT in dUTP assay
binding result: binds
